Experimental data reported in patent US20260226152A1 (GlaxoSmithKline, published 2026).

T1: Human IL-18 (human, UniProt Q14116 37-193)
T1 sequence: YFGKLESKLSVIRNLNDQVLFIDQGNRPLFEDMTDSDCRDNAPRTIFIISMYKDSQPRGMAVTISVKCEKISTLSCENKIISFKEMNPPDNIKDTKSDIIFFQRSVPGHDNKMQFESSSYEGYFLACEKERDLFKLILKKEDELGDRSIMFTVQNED

T2: Human IL-23 (human, UniProt Q9NPF7 20-189; P29460 23-328)
T2 sequence 1: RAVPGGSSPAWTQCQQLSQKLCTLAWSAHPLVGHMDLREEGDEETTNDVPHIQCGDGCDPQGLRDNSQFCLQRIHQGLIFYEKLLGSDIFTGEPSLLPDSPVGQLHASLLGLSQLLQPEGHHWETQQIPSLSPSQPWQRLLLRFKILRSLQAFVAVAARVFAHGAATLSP
T2 sequence 2: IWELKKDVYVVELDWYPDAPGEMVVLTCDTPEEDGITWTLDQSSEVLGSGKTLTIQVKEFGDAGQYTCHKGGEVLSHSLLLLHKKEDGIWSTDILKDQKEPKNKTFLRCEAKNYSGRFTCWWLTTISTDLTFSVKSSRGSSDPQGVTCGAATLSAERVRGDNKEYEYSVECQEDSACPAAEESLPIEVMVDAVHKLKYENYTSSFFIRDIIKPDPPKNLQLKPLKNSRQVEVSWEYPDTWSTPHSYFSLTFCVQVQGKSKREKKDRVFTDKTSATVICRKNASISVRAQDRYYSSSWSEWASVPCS


Assays:
Human IL-18 [1] = target: T1, Human IL-18; assay: cell-based or functional assay
Human IL-23 [2] = target: T2, Human IL-23; assay: cell-based or functional assay
Human IL-23 [3] = target: T2, Human IL-23; assay: cell-based or functional assay; remark: listed apart in the source
Human IL-18 [4] = target: T1, Human IL-18; assay: SPR (Biacore), antibody captured on Protein A/G, cytokine as analyte, 25 C
Experimental: (§1) A heterodimeric bsAb, alongside anti-IL-18 and anti-IL-23 common light chain control bispecific antibodies, were assessed for binding to human and cyno IL-18 and IL-23, using the Biacore 8K and T200 (Cytiva) surface plasmon resonance (SPR) instruments. All reagents were generated recombinantly in-house with the exception of Rhesus monkey IL-18 which was purchased from R&D systems (Cat #2548-RM-025/CF). Rhesus and cynomolgus monkey amino acid sequences are identical. Therefore, the protein will be referred to as cynomolgus monkey IL-18.
(§2) Heterodimeric bsAb, anti-IL-18 and anti-IL-23 common light chain bispecific control molecules were assessed for binding to recombinant human and cynomolgus monkey IL-18 and IL-23 using the Biacore 8K and T200 (Cytiva) SPR instruments. The antibodies were captured onto Protein A/G, which was immobilised onto flow cell 2 of 8 channels (Biacore 8K) or flow cells 2, 3 and 4 (Biacore T200) of a CM5 series S sensor chip by primary amine coupling. The IL-18 or IL-23 analytes were passed over the captured antibodies at varying concentrations between 0.04-25 nM. The association phase was for 240 seconds at 30 μl/min, followed by a dissociation step of up to 1200 seconds. A 0 nM (i.e., buffer alone) injection was used to double reference the binding curves. Regeneration of the chip surface between cycles was carried out using 50 mM NaOH. The assay was run at 25° C. in HBS-EP⁺ buffer. Biacore 8K control software version 3.0 was used to run the experiment. Data was analysed using Biacore 8K Insight evaluation software version 3.0. Biacore T200 control software version 1.0 was used to run the experiment. Data was analysed using Biacore T200 evaluation software version 2.0. Affinities and kinetics were determined using the 1:1 kinetic fit inherent to the software where possible. All affinity values generated using both instruments were combined to determine geometric mean values.

Human IL-23 [5] = target: T2, Human IL-23; assay: SPR (Biacore), antibody captured on Protein A/G, cytokine as analyte, 25 C, 1:1 fit, n=1
Experimental: as §1, §2

Row | pIC50 (GeoMean), neutralisation of human IL-18-induced IFNγ secretion by KG-1 cells (Human IL-18 [1]) | IC50 Parent (pM), inhibition of IL-23-induced pSTAT3 in T cells of human whole blood (run with Heterodimeric bsAb-1) (Human IL-23 [2]) [pM] | IC50 Parent (pM), inhibition of IL-23-induced pSTAT3 in T cells of human whole blood (run with Heterodimeric bsAb-2) (Human IL-23 [2]) [pM] | IC50 Parent (pM), inhibition of human IL-23-induced mouse IL-17A secretion in mouse splenocytes (run with Heterodimeric bsAb-1) (Human IL-23 [3]) [pM] | IC50 Parent (pM), inhibition of human IL-23-induced mouse IL-17A secretion in mouse splenocytes (run with Heterodimeric bsAb-2) (Human IL-23 [3]) [pM] | binding result (Human IL-18 [4]) | Kd (Human IL-23 [5]) [nM] | IC50 Parent (pM), inhibition of IL-23-induced pSTAT3 in T cells of human whole blood (run with Heterodimeric bsAb-3) (Human IL-23 [2]) [pM] | IC50 Parent (pM), inhibition of human IL-23-induced mouse IL-17A secretion in mouse splenocytes (run with Heterodimeric bsAb-3) (Human IL-23 [3]) [pM] | Binder
1 | < 8.48 | 282 | 286 | 60 | 53.3 | no binding (tested: 0.04-25 nM analyte) | 0.163 | – | – | IL-23 control 2 (antibody, V domains shown, Anti-IL-23 (risankizumab) mAb plus Het-mAb Fc mutations of Heterodimeric bsAbs 1-4 and silencing (LAGA) mutations; also called risankizumab variable domains) VH: QVQLVQSGAEVKKPGSSVKVSCKASGYTFTDQTIHWMRQAPGQGLEWIGYIYPRDDSPKYNENFKGKVTITADKSTSTAYMELSSLRSEDTAVYYCAIPDRSGYAWFIYWGQGTLVTVSS VL: DIQMTQSPSSLSASVGDRVTITCKASRDVAIAVAWYQQKPGKVPKLLIYWASTRHTGVPSRFSGSGSRTDFTLTISSLQPEDVADYFCHQYSSYPFTFGSGTKLEIK
2 | – | – | – | – | – | no binding (tested: 0.04-25 nM analyte) | 0.576 | 637 | 687 | IL-23 control 3 (antibody, V domains shown, Anti-IL-23 (tildrakizumab) plus Het-mAb Fc mutations of Heterodimeric bsAbs 1-4 and half-life extending (YTE) mutations; also called tildrakizumab variable domains) VH: QVQLVQSGAEVKKPGASVKVSCKASGYIFITYWMTWVRQAPGQGLEWMGQIFPASGSADYNEKFEGRVTMTTDTSTSTAYMELRSLRSDDTAVYYCARGGGGFAYWGQGTLVTVSS VL: DIQMTQSPSSLSASVGDRVTITCRTSENIYSYLAWYQQKPGKAPKLLIYNAKTLAEGVPSRFSGSGSGTDFTLTISSLQPEDFATYYCQHHYGIPFTFGQGTKVEIK
